# Experimental data taken from paper PMC2789240, “Comparative structural, kinetic and inhibitor studies of Trypanosoma brucei trypanothione reductase with T. cruzi^” (Molecular and Biochemical Parasitology, 2010).
# B1: TcTryR (recombinant T. cruzi trypanothione reductase) (Trypanosoma cruzi) (protein)
# chain: MMSKIFDLVVIGAGSGGLEAAWNAATLYKKRVAVIDVQMVHGPPFFSALGGTCVNVGCVPKKLMVTGAQYMEHLRESAGFGWEFDRTTLRAEWKKLIAVKDEAVLNINKSYEEMFRDTEGLEFFLGWGSLESKNVVNVRESADPASAVKERLETENILLASGSWPHMPNIPGIEHCISSNEAFYLPEPPRRVLTVGGGFISVEFAGIFNAYKPKDGQVTLCYRGEMILRGFDHTLREELTKQLTANGIQILTKENPAKVELNADGSKSVTFESGKKMDFDLVMMAIGRSPRTKDLQLQNAGVMIKNGGVQVDEYSRTNVSNIYAIGDVTNRVMLTPVAINEAAALVDTVFGTNPRKTDHTRVASAVFSIPPIGTCGLIEEVASKRYEVVAVYLSSFTPLMHNISGSKYKTFVAKIITNHSDGTVLGVHLLGDNAPEIIQGVGICLKLNAKISDFYNTIGVHPTSAEELCSMRTPSYYYVKGEKMEKPSEASL
# notes: made in house
# B2: TcTryR (Trypanosoma cruzi) (protein)
# chain: B1 chain
# notes: made in house
# What was measured:
# [1] = substrate: N[C@@H](CCC(=O)N[C@H]1CSSC[C@H](NC(=O)CC[C@H](N)C(=O)O)C(=O)NCC(=O)NCCCNCCCCNC(=O)CNC1=O)C(=O)O; experiment: 412 nm DTNB-coupled trypanothione reductase assay (IC50, Km); type: biochemical, Trypanosoma cruzi; settings: other: saturating NADPH; pH 7.4; 25.0 °C
# Description: Assay plates were prepared using a Precision2000 liquid handler (Bio-Tek) with a final DMSO concentration of 1% in all wells. Plates contained a 10-point serial dilution (2-fold or 3-fold dilutions) across columns 2–11 with a top concentration of 100 μM or 200 μM. […] Column 1 contained full signal controls (no inhibitor) and column 12 contained background controls (no enzyme).
# [2] = substrate: N[C@@H](CCC(=O)N[C@H]1CSSC[C@H](NC(=O)CC[C@H](N)C(=O)O)C(=O)NCC(=O)NCCCNCCCCNC(=O)CNC1=O)C(=O)O; experiment: 340 nm NADPH oxidation trypanothione reductase assay; type: biochemical, Trypanosoma cruzi; settings: other: 340 nm assay; pH 7.4; 25.0 °C
# Description: TryR was assayed spectrophotometrically either by monitoring the trypanothione-dependent oxidation of NADPH at 340 nm, or by the reduction of 5,5′-dithio-bis(2-nitrobenzoic acid) (DTNB) at 412 nm (see Fig. 1B). Assays at 340 nm were carried out at 25 °C in 500 μl volume acrylic cuvettes and changes in absorbance monitored with a UV-1601 PC spectrophotometer (Shimadzu). The standard assay mixture contained 40 mM HEPES pH 7.4, 1 mM EDTA, ∼10 mU ml^−1 TryR, 150 μM NADPH and 100 μM T(S)2. Assays at 412 nm were carried out in 96-well plates (Polysorp, Nunc) at room temperature in a volume of 200 μl. Changes in absorbance were monitored in a SpectraMax 340pc plate reader (Molecular Devices). The standard assay mixture contained 40 mM HEPES pH 7.4, 1 mM EDTA, ∼10 mU ml^−1 TryR, 150 μM NADPH, 6 μM T(S)2 and 50 μM DTNB. All assays were initiated by addition of the T(S)2. Data was collected using SoftMax Pro (molecular devices) and UVProbe 2 (Shimadzu) software, processed and analysed using Excel 2002 (Microsoft) and GraFit 5 (Erithacus Software). NADPH stock solutions were measured spectrophotometrically at 340 nm using an absorption coefficient of 6.22 × 10^3 M^−1 cm^−1[16]. The concentration of T(S)2 stock solutions were determined by measuring the oxidation of NADPH in the presence of excess TryR.
# Km values with respect to T(S)2 were determined for TbTryR in both assays using purified recombinant T. cruzi TryR for comparison. Determinations for each enzyme were carried out in three independent experiments and a weighted mean calculated.
protein,measurement,setting,value
B1,Km,[1],10.4 ± 0.3 µM
B2,Km,[2],29.6 ± 2.8 µM
same,kcat,[2],77 ± 8 s⁻¹
same,kcat/Km,[2],2.6e+06 M⁻¹ s⁻¹
